Experiment: yeast display, Sf9 membrane polyspecificity reagent, FACS + sequencing; frameworks hold sequencing errors
Procedure, shortened: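 Galactose-induced (36–48 hours) yeast carrying a synthetic nanobody display library were exposed to 10% biotinylated, detergent-solubilized Sf9 membrane reagent at 4 °C for 1 hour. FACS followed streptavidin microbead enrichment, using low and high (top ~1%) gates for expression (anti-HA) and reagent binding (streptavidin). Colony PCR, MiSeq 2 × 250 sequencing and CDR-length filtering followed. Labels for polyreactivity reflect the gate of origin.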

Row | Sequence | polyreactivity (PSR sort gate)
1 | QVQLVESGGGLVQAGGSLRLSCAASGFIFRSYVMGWYRQAPGKEREFVAVITSSGGRTYYADSVKGRFTISRDNAKNTVYLQMNSLKPEDTAVYYCAATRRYPPRRVWYDYWGQGTEVTVSS | high polyreactivity
2 | QVQLVESGGGLVQAGGSLRLSCAASGSTFTTYDMGWYRQAPGKERELVAGITGSGTSTFYADSVKGRFTISRDNAKNTVYLQMKSLKPEDTAVYYCATDWYTPEEYVTGAIEEYYWGQGTLVTVSS | low polyreactivity
3 | QVQLVESGGGLVQAGGSLRLSCAASGSIFWSNAMGWYRQAPGKESELVATIDDDVGSTYYADSVMGRFTISRDNAKNTVYLQMNSLKPEDTAVYYCAADSVYYVIPYEYWGQGTQVTVSS | low polyreactivity
4 | QVQLVESGGGLVQAAGSLRLSCAASGSTFTLNAMGWNRQAPGKERELVAAITSGGRTKYADSVKGRFTISRDNAKNTVYLQMNSLKPEDTAVYYCAATFAGGYGYWGQGTQVTVSS | high polyreactivity
5 | QVQLVESGGGLLQAGGSLRLSCAATGITFDRYAMGWYRQAPGKERELVAAITSGGRTYYADSVKGRFTISRDNAKNTVYLQMNSLKPEDTAVYYCNATRGQYVGRYYYWGQGTQVTVSS | high polyreactivity
6 | QVQLVESGGGIVQAGGSLRISSAASGSIFGYYAMGWYIQEPGKERELVADITVRGGSTYYADSVKGRFTISRDNAKNTVYLQMNSLKPEDTAVYYCAAAQYTFWDGDSWGQGTQVTVSS | high polyreactivity
7 | QVQLVETGRGLVQAGGSLRLSCAASGLILVPNTMGWYRQAPGTERELVAAISYSGGGPYYADSVKGRFTLSRDNATNTVYLQMNSLKPEDTAVYSCAAYDKRESPPYGYWGQGTQVTVSS | low polyreactivity
8 | QVQLVESGGGLVQAGGSLRLSCAASGRIFVINVMGWSRQAPGKERELVATITWSVGSTYYADSVKGRFTISRDTAKNTVYLQMNSLKPEDTAVYYCAAASSFKFDYWGQGTQVTVSS | low polyreactivity
9 | QVQLVESGGGLVQAGGSLRLSCAASGRTSFWNAMGWYRQAPGKERELVAAISASVGRTYYADSVKGRFTISRDNAKNTVYLQMNSLKPEDTAVYYCAKVYHAGTGYPSLGLDYWGQGTQVTVSS | low polyreactivity
10 | QVQLVESGGGLVQAGGSLRLTCAASGSIFFPNTMGWSRQAPGKERELVASISYSGGSTYYADSVKGRFTISRDIAKNSVYLQMNSLKPEDTAVYYCARTYWGDRYQFSSNGYEYWGQGTQVTVSS | high polyreactivity
11 | QVQLVESGGGLVQAGGSLRLSCAASGSTFHLYAMGWYRQAPGKERELVAAITRGGGSTYYADSVKGRFTISRDYAKNTVYLQMNSLKPEDTAVYYCNARGPSSYRYEYWGQGTQVTVSS | high polyreactivity
12 | QVQLVESGGGLVQAGGSLRLSCAASGRTFGRYAMGWYRQAPGKERELVAAISIRGGRTTYADSVKGRFTISRDNAKNTVYLQMNSLKPEDTAVSYCAKVISVRGGYGYWGQGTQVTVSS | high polyreactivity
13 | QVQLVESGGGIVQAGGSLRLSCAASGSTFVVYAMVWYRQEPGKERELVAAITSGGSTYYADSVKGRFTISRDNAKNTVFLQMNSLKPDDSAVYYCNKDDFSNELYWGQGTDVTVSS | low polyreactivity
14 | QVQHVESGGGLVQSGGSLRLSCAASGRNFKFNPMGWYRQPPGKERELVAGITWTGSTTSYADSVKGRFTISRDNATNPVYLQMNSLKPEDTEVYYCDGDKIGFWYHGFYYRGQGTQVTVSS | low polyreactivity
15 | QVQLVESGGGLVQAGGSLRLRCAASGRILWWYAMGWYRQAPGKERELVATITYSGGSTYADSVKGRFTISRDNAKNTVYLQMNSLKPEDTAVYYCAARLPLYYGKSDYWGQGTQVTVSS | high polyreactivity
16 | QVQLVESGGGLVQAGGSLRLSCAASGSTFVRYAMGWYRQEPGKERELVAAISKSGGSTYYADSVKGRFTISRDNAKNTVYLQMNSLKPEDTAVYYCNADVYKNSKFRIMGYWGQGTQVTVSS | low polyreactivity
17 | QVQLVESGGGLVQAGGSLRLSCAASGLTFEYYTMGWYIQAPGKERELVAAITSSGGSTYYADSVKGRFTISRDNAKNTVYLQMNSLKPVDTAVYYCAAYQIYQYDGTYDYWGQGTQVTVSS | low polyreactivity
18 | QVQLVESGGGLVQAGGSLRLSCAASGFIFDYYAMGWYRQAPGKERELVAAITSRSGSTYYADSVKGRFTISRDNAKNTVYLQMNSLKPEDTAVYYCSRRFKYGSTAWRFYYWGQGTQVTVSS | high polyreactivity
19 | QVQLVESGGVLVQAGGSLRLSCASSLTISYRYAMGWYRTAPGKERELVAAITSGGGTTYYADSVKGRFTISRDNAKNTVYLQMNSMKPEDTAVYYCAKPRARQAFEYWGQGTQVTVSS | high polyreactivity
20 | QVQLVESGGGLVQAGGSLRLSCAPSGSIFVTYAMGWYRQAPGKERELVAAISTSGGSTYADSVKGRFTISRVNAKNTVYLQMNSLKPEDTAVYYCNADDPGYAVPWYWFKYDYWGQGTQVTVSS | low polyreactivity
21 | QVQLVESGGGLVQAGGSLRISCAASGYIYGYNAMGWYRQAPGIAREFVAAIRFSGGSTYYADSVKGRFTISRDNAKNTVYLQMNSLKPEDTAVYYCAKRCYAHLIPIAYEYWGQGTQVTVSS | low polyreactivity
22 | QVQLVESGGGLVQAGGSLRLSCAASGRTFSYYAMGWYRQAPGKERELVAAISSGGSTNYADSVKGRFTISRDNAKNTVYLQMNSLKPEDTAVYYCATSSICGSGRVRWVTYYYWGQGTQVTVSS | low polyreactivity

Row | Sequence | polyreactivity (PSR sort gate)
23 | QVQLVESGGGLVQAGGSLRLSCAASGSTFVDYDMGWYRQAPGKERELVAAITYSGARTYYADSVKGRFTISRDNAKNTVYLKMNSLKPEDTAVYYCNADQRSASDQLEFDYWGQGTQVTVSS | low polyreactivity
24 | QVQLVESGGGLVQAVGILRLSCASYGRTFVANAMGWYIQAPGKERELVAGITCGDSTYYADSVKWRFTISRDNAKNTVYLQMNRLKPEDTAVYYCSAPYNFWNFFDLIYVWDGYDYWGQGTQVTVSS | low polyreactivity
25 | QVQLVESGGGLVQAGGSLRVSFAASGLTFFQYGMGWYRQAPGKERELVASITRSRGRTNYADSVKGRFTISRDNAKYTVYLQMNSLKPEDTAVYYCAAYYYGSSAYGYGYNYWGQGTQVTVSS | high polyreactivity
26 | QVQLVESGGGLVQAGGSLRLSCAASGFIFTPYAKGWYRQAPGKERELVAAISSGGSTYADSVKGRFTISRDNAKNTVYLQMNSLKPEDTAVYYCAAYYTGYSTTYYYWGQGTQVSVSS | low polyreactivity
27 | QVQLVESGGGLVLAGGSLRLSCAASRFILRDNGMGWNRKAPVKERELVAAISERGGRTDYADSVKGRFTISRDNAKNTVYLQMNSLKPEDTAVYYCAAEDIANFYYWGQGPQVTVSS | high polyreactivity
28 | QVQLVESGGGLVQAGGSLRLSCAASGSIFHYYAMGWYRQAPGKERELVAAINSSGGSRTYYADSVKGRFTISRDNAKNTVYLQMNSLKPEDTAVYYCAAARDVFLGLQIWYWYGGDYWGQGTQVTVSS | low polyreactivity
29 | QVQLVESGGGLVHAGGSLRLSCAAAGFTFTYYTMGWYRKAPGKERELVAAITENGGSTYYADSVKWRFTISRDNAKNTVYLQMKSLKPEDPAVYYCNARVWDYGGHGYDYWGQGTQVTVSS | low polyreactivity
30 | QVQLVESGGGLVHAGGSLRLSCAASGSTLGSYAMGWYRQAPGKERELVARITTGGGTSYADSVKGRFTISRDNAKNTVYLQMNSLKPEDTAVYYCAATFIYGARTYGYWGQGTQVTVSS | high polyreactivity
31 | QLKHVESGGGLVQAGGSLRLSCAASVGTFGLNAMGRYRQAPGKERELVADIDGRGGSTYYADSVKGRFTISRDNAKNTVNLQMNTLKPEDTAVYYCAARAPFLSVPSELDYCGQGTQVTVSS | low polyreactivity
32 | QVQLVESGGGLVQAGGSLRLSCAASGSTINIYAMGWYRQAPGKERELVAAISGRGGSTYYADSVKGRFTISRDNAKNTVYLQMNSLKPEDTAVYYSAASGYKVGSYRARMYYWGQGTQVTVSS | high polyreactivity
33 | QVQLVESGGGLVQAGGSLRLSCAASGIIFLNYAMGWYRQAPGKERELVAAITTSGGNTYYADSVKGRFTISRDNAKNTVYLQMNSLKPEDTAVYYCAATDLYFWYPYWFAFEYDYWGQGTQVTVSS | high polyreactivity
34 | QVQLVESGGGLVQAGGSLRLSCAASGRTFNSYAMGWYRQAPGKERELVASISSGGSTYYADSVKGRFTLSRDNAKHTDYLQMNSLKPEDTAVYYCAAKSVAYYSYFRRDYWGQGTQVTVSS | low polyreactivity
35 | QVQLVESGGGLVQAGGSLRLSCAASGSIFYDNGMGWYRQAPGKERELVAAISRGGTTNYSDSVKGRFTISRDKAKNTVYLQMNSLKPEDTAVYYCNAETRFTYWGSWYDYWGQGTQVTVSS | low polyreactivity
36 | QVQLGESGGCLVQAGGSLRLSCAASGSPFYTYAMGWYRQAPGKERELVAASSFGGGSTYADSVKGRFTISRDNAKNTLYLQMNSLKPDDTAGYYCNTDLYLYGWYPREVQQYAGGDYWGQGTQVTVSS | low polyreactivity
37 | QVQLVESGGGLVQAGGSLRLSCAASGSIFPSYAMGWYRQAPGKERELVAAISSGGTTNYADSVKGRFTISLDNAKNTVYLQMNSLKPEDTAVYYCAAVRGDSEDRYDHWGQGTQVTVSS | high polyreactivity
38 | QVQLVESGGGLVQAGGSLRLSCAASGFIFGQYAMGWYRQAPGKERELVAAISWSGGRTNYADSVKGRFTISRDNAKYTVYLQMNSLKPEDTAVSYCAARKGKYPQYTYGYWGQGTQVSVSS | high polyreactivity
39 | QVQLVESGGGLVQAGGSLRLSCAASGSIFGYYTMGWYRQAPGKERELVATISRSGGSTYYADSVKGRFTISRDNAKNTVYLQMNSLKPEDTAVYYCGARSWGGYDSRGYWGQGTQVTVSS | high polyreactivity
40 | QVQLVESGGGLVQAGGSLRLSCAASGFIIQYYAMGWYRQAPGKERELVAVISLSGGRTSYADSVKGRFTISRDNAKNTVYLQMNSLKPEDTAVYYCARRVWSASNDYWGQGTQVTVSS | high polyreactivity
41 | QVQLVESGGVLVQAGGSLRLSCAASGSTFPWYAMGWYRPAPGKERELVAAITARGTRTYYADSVKGRFTISRDNAKNTVYLQMNILKPEDTAVYYCNAGISSRYDYWGQGTQVTVSS | high polyreactivity
42 | QVQLVESGGGLVQAGGILRLSSAASGFTFYLYTMGWYTPAPGKERELVAAISRSGDRTYYADSVKGRFTISRDNAKNTVYLQMNSLKPEDTAVYYCNAYTSYPNTMDYWGQGTQVTVSS | high polyreactivity
43 | QVQLVESGGGLVQAGGSLRLSCAASGFTFHTYAMGWYRQAPGKERELVAAIDSSGGITYYADSVKGRFTISRDNAKNTVYLQMKSLKPEDTAVYYCAAVFLLFGFEWSYDYWGQGTQVTVSS | low polyreactivity
